B1: Myocardin, residues 363 to 406; numbered along this chain, Q8IZQ8 (parent)
chain: KPGPLPPNLDDLKVSELRQQLRIRGLPVSGTKTALMDRLRPFQD

Variants of: B1
Assay: abundance fitness (aPCA) (normalised: wild type 0, dead -1); higher = more abundant; growth selection in yeast, the domain comes from the species named
Settings: Homo sapiens

Abundance fitness, by site and new letter:
L12: R -0.394, P -0.899, W -0.315, V -0.497, Y 0.298, Q -0.506, T -0.401
E16: D -0.27, A -0.295, S -0.47, W -0.613, R -0.827, H -0.983, V -0.481, Y -0.323, M -0.615, P -0.939, K -0.842, T -0.515, L -0.826
S29: C -0.191, K -0.113, E 0.129, Y -0.095, F -0.245, I -0.376, Q 0.006, T -0.001, N -0.264, P -0.605, A -0.071, M -0.003, L -0.333, V -0.097, R -0.362, G 0.042, H -0.108
L35: C -0.184, E -0.293, G -0.489, D -0.459
A34: K -0.4, P -0.825, R -0.642, T -0.076, F -0.909, G -0.556, C -0.467, D 0.137, E 0.011, V 0.026, L -0.721, S -0.223, W -1.14, M -0.262, Q -0.601
V28: Q 0.027, T 0.153, G -0.168, S 0.123, W -0.13, H -0.264, I 0.217, R -0.671, A -0.002, L -0.07, M 0.017, D 0.294, P -0.198, C 0.207, E 0.082, K -0.436
T33: N -0.001, E 0.292, W -0.467, P -0.17, V 0.016, M -0.402, D 0.138, A 0.077, L -0.19, F -0.144, Q -0.385, R -0.055, I 0.085, C -0.072, K 0.016, S -0.071
S15: A 0.113, C -0.168, Y -0.274, Q -0.261, N -0.288, E 0.171, V -0.243, W -0.163, T 0.071, M -0.245, I -0.23, P -0.346, L -0.688, D 0.015, H 0.023, F -0.22, G -0.122, R -0.22
Q20: S -0.711, P -0.785, C -0.395, A 0.004, I 0.05, H 0.073, D -0.608, R -0.602, Y -0.38, G -0.697, F -0.093, W -0.767, V -0.57, K -0.314, L 0.073
P27: R -0.344, M -0.324, H -0.149, Q -0.05, I -0.374, C -0.216, W -0.951, Y -0.891, G -0.41, V -0.73, A -0.376, E -0.245, L -0.657, D 0.162, S -0.043, T -0.39
V14: S -0.486, F -0.939, A -0.465, G -0.757, R -1.02, W -1.02, Q -0.994, M -0.116, H -0.396, D -0.702, K -0.157, C -0.603, L -0.16, T -0.222, P -0.247
L17: N -1, V -0.606, M -0.265, W -0.798, C -1.31, G -0.649, H -0.878, K -0.345, E -0.454, A -0.583, T -0.779, I -0.6, D -0.86, Y -1.02, R -0.606
